Test system: MS2 coat protein
Assay: apparent KD of MS2 coat protein; designed switch direction (-1 OFF switch, 1 ON switch): 1; higher = weaker reporter binding
Settings: Eterna round: R98; input ligand: none
Experimental: (§1)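 RNA-MaP: designed FMN/MS2 RNA switches (84 nt design region) are transcribed on-chip within common flanks and titrated with SNAP-549-labelled MS2 coat protein (about 1-3000 nM) in 100 mM Tris pH 7.5, 80 mM KCl, 4 mM MgCl2, without or with 200 uM FMN. Median apparent KD per design; activation ratio = KD,OFF / KD,ON.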

Sequence	apparent KD of MS2 coat protein
UGACGGCACACAGGAUAUAGUGCACAAAGUGUACUAGAAGGGUGAGCACUCGUCCGGGCACAUGAGGAUCACCCAUGUCGUCGA [Onusar]	133 nM
UUGACGUCGGAUACAUGAGGAUCACCCAUGUGCCCGCGGGCACAGGAUAUCGAACAUAGUAUUGACGAGAAGGGUGACAGAGAG [Anxeenerce]	404 nM
UGCACAUGAGGAUCACCCAUGUAUUGUUCGGUUUAUAGUAGUGAGGAUAUGCAAAGUAUAAGGAAGCAGAAGGCACAGGAUUCA [JR_SSNG3_Sub045]	26.3 nM
CCUACCAACACAGGAUAUGCUAUCCUUUGGGUAGCAGAAGGGUGAAACAUGAGGAUCACCCAUGUGGUGGGACCCGGUGACGGG [Mat - Same State NG 1 - Eli mod - D70]	1010 nM
CUAAUUUAUUGAGGAUAUGCACAGGAUCACCGUGUAGAAGGCAUCAGGGAGAAGGUGCAGAGGAUCACCCUGUAAGGAUAUCAA [pwkr2 ssNG1 DX.3]	231 nM
UGGACCAAUACAGGAUAUGGUGACGCACAUGAGGAUCACCCAUGUCCGCAGCGUGCUCAGCACGCCCAGAAGGGUAUUGAUUCA [Tereriesti]	671 nM
GGUCCAAUAUGAGGAUAUAGCACCUUAUUGGUGCUAGAAGGCGUGUCGGUAGACAUGAGGAUCACCCAUGUAUUACAAUGGACC [SameState #28 NG1]	88.6 nM

Test system: MS2 coat protein
Assay: apparent KD of MS2 coat protein; designed switch direction (-1 OFF switch, 1 ON switch): -1; higher = weaker reporter binding
Settings: Eterna round: R98; input ligand: FMN 200 uM
Experimental: as §1

Sequence	apparent KD of MS2 coat protein
UCAUACAUGAGGAUCUCCCAUGACAUGAGGAUCACCCAUGUGCAGGAUAUACGUGAUAUAAUAUAGUAGAAGGGCAGACUAUAU [LRO008_Exclusion NG 3]	192 nM
AACAGCGUAGAUAAUAAUGAUUACAUGAGGAUCACCCAUGUAUAGGAUAUGCAGUGGAAUACACUGCAGAAGGAUACAUCGCUG [Exclusion NG 3/18-B1]	33 nM
AUGCUUCACACAGGAUAUACAUGAGGAUCACCCAUGUGUGGGCGGUAGCUGACACGAGCUACCGGGUAGAAGGGUGUGAAGCAU [xclu_NG2_cac21]	127 nM
GCACUGGAUGUAGGAUAUCAGGACGAUAAGUCCUGAGAAGGACAUGAGGAUCACCCAUGUGAAUAAAACCAGUGCAAUAAUAUA [Denovo Exng1 22]	30.9 nM
UUCUGUGCCCAAAGUUUAAGCACAUGAGGAUCACCCAUGUGAAAGGAUAUGUGGCGUGUAACGUUAUAGAAGGUUCACAAUAAA [Edorcetila]	74.9 nM
AUGACAGGCAAAGCGCAACGGCGAACAUGAGGAUCACCCAUGUAGGAUAUGCUACACAAAGUGUAGCAGAAGGACAUACGACGA [Ex NG2 #82]	88.6 nM
UCACAGUGUCGUUAUCCGUAGCGAACAUGAGGAUCACCCAUGUAGGAUAUGUUAUUAAACUAAUAACAGAAGGACGUUAGUCGG [Ex NG3 #21]	94.3 nM
UAUAUAAUAAGAGCUGGAACUCAAACAUGAGGAUCACCCAUGUAGGAUAUCAGCACGAUAAGUGCUGAGAAGGACAACCAGCUC [Denovo 75]	21.2 nM
UAUAUAAUUAAGAGCUGGACCAAAACAUGAGGAUCACCCAUGUAGGAUAUCAGCACGAUAAGUGCUGAGAAGGACUACCAGCUC [Denovo 83]	22.4 nM
CCAUACAUGAGGAUCACCCAUGACAUGAGGAUCACCCAUGUGCAGGAUAUACGUGAUAUAAUAAAGUAGAAGGGCAGACCAAAA [LRO002_Exclusion NG 3]	87.4 nM
AAUAUAAAAGAGCUGGAUAACUCAACAUGAGGAUCACCCAUGUAGGAUAUCAGCACGAUAAGUGCUGAGAAGGACAACCAGCUC [Denovo 69]	16.2 nM
UGUUGUUACGCAGGAUAUUGCCAACAGGCAGUAGGAUAUCCGAAAGGAGAAGGACCGCCAACAGGCGAGAAGGGCGGGUUAACA [pwkr exNG2 2xF7 2FMN.10 scored 83]	35 nM
AGCUGUGGCCGAGGAUAUCUAUCUUCAAUAACCGAAAUAUAAUCGGACAUGAGGAUCACCCAUGUAGAGAAGGCGGUCUCAGCA [Eli xng2 2.033]	100 nM

Same assay, conditions: Eterna round: R98; input ligand: none

Sequence	apparent KD of MS2 coat protein
UCAUACAUGAGGAUCUCCCAUGACAUGAGGAUCACCCAUGUGCAGGAUAUACGUGAUAUAAUAUAGUAGAAGGGCAGACUAUAU [LRO008_Exclusion NG 3]	157 nM
AACAGCGUAGAUAAUAAUGAUUACAUGAGGAUCACCCAUGUAUAGGAUAUGCAGUGGAAUACACUGCAGAAGGAUACAUCGCUG [Exclusion NG 3/18-B1]	17.5 nM
AUGCUUCACACAGGAUAUACAUGAGGAUCACCCAUGUGUGGGCGGUAGCUGACACGAGCUACCGGGUAGAAGGGUGUGAAGCAU [xclu_NG2_cac21]	32.6 nM
GCACUGGAUGUAGGAUAUCAGGACGAUAAGUCCUGAGAAGGACAUGAGGAUCACCCAUGUGAAUAAAACCAGUGCAAUAAUAUA [Denovo Exng1 22]	13.4 nM
UUCUGUGCCCAAAGUUUAAGCACAUGAGGAUCACCCAUGUGAAAGGAUAUGUGGCGUGUAACGUUAUAGAAGGUUCACAAUAAA [Edorcetila]	33.1 nM
AUGACAGGCAAAGCGCAACGGCGAACAUGAGGAUCACCCAUGUAGGAUAUGCUACACAAAGUGUAGCAGAAGGACAUACGACGA [Ex NG2 #82]	41.2 nM
UCACAGUGUCGUUAUCCGUAGCGAACAUGAGGAUCACCCAUGUAGGAUAUGUUAUUAAACUAAUAACAGAAGGACGUUAGUCGG [Ex NG3 #21]	36 nM
UAUAUAAUAAGAGCUGGAACUCAAACAUGAGGAUCACCCAUGUAGGAUAUCAGCACGAUAAGUGCUGAGAAGGACAACCAGCUC [Denovo 75]	17.6 nM
UAUAUAAUUAAGAGCUGGACCAAAACAUGAGGAUCACCCAUGUAGGAUAUCAGCACGAUAAGUGCUGAGAAGGACUACCAGCUC [Denovo 83]	18.5 nM
CCAUACAUGAGGAUCACCCAUGACAUGAGGAUCACCCAUGUGCAGGAUAUACGUGAUAUAAUAAAGUAGAAGGGCAGACCAAAA [LRO002_Exclusion NG 3]	74.2 nM
AAUAUAAAAGAGCUGGAUAACUCAACAUGAGGAUCACCCAUGUAGGAUAUCAGCACGAUAAGUGCUGAGAAGGACAACCAGCUC [Denovo 69]	14.8 nM
UGUUGUUACGCAGGAUAUUGCCAACAGGCAGUAGGAUAUCCGAAAGGAGAAGGACCGCCAACAGGCGAGAAGGGCGGGUUAACA [pwkr exNG2 2xF7 2FMN.10 scored 83]	57.9 nM
AGCUGUGGCCGAGGAUAUCUAUCUUCAAUAACCGAAAUAUAAUCGGACAUGAGGAUCACCCAUGUAGAGAAGGCGGUCUCAGCA [Eli xng2 2.033]	37.7 nM

From the supplement of paper PMC9170038
